Source: US20180371054A1 (published 2018)

T1: CD19 (human, UniProt P15391 20-291)
T1 chain: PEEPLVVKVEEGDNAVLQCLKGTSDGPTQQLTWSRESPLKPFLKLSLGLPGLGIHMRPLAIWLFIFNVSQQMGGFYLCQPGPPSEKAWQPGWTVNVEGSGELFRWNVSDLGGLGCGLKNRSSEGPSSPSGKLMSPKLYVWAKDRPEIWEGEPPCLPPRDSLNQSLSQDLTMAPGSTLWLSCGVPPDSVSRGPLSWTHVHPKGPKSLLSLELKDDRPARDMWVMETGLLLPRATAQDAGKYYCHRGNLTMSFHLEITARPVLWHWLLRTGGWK


Experiments:
CD22 = CD22 (human, UniProt P20273 20-687); experiment: Biacore SPR
CD19 [1] = molecular target: T1, CD19; experiment: binding kinetics
CD19 [2] = molecular target: T1, CD19; experiment: Biacore SPR

Binder | Kd (CD22) [nM] | other results
Murine CD22ALAb scFv (scFv) scFv: QVQLQQPGAELVRPGASVKLSCKASGYTFTNYWINWVKQRPGQGLEWIGNIYPSDSFTNYNQKFKDKATLTVDKSSSTAYMQLSSPTSEDSAVYYCTRDTQERSWYFDVWGAGTTVTVSSDVVMTQTPLSLPVSLGDQASISCRSSQSLVHSNGNTYLHWYLQKPGQSPKLLIYKVSNRFSGVPDRFSGSGSGTDFTLKISRVEAEDLGLYFCSQSTHVPWTFGGGTKLEIK | 38 | 
CD19ALAb (antibody) QVQLQQSGAELVRPGSSVKISCKASGYAFSSYWMNWVKQRPGQGLEWIGQIWPGDGDTNYNGKFKGKATLTADESSSTAYMQLSSLASEDSAVYFCARRETTTVGRYYYAMDYWGQGTTVTVSSDIQLTQSPASLAVSLGQRATISCKASQSVDYDGDSYLNWYQQIPGQPPKLLIYDASNLVSGIPPRFSGSGSGTDFTLNIHPVEKVDAATYHCQQSTEDPWTFGGGTKLEIK |  | Kd (CD19 [1]): 1.1 nM
Murine CD19ALAb scFv (scFv) scFv: QVQLQQSGAELVRPGSSVKISCKASGYAFSSYWMNWVKQRPGQGLEWIGQIWPGDGDTNYNGKFKGKATLTADESSSTAYMQLSSLASEDSAVYFCARRETTTVGRYYYAMDYWGQGTTVTVSSDIQLTQSPASLAVSLGQRATISCKASQSVDYDGDSYLNWYQQIPGQPPKLLIYDASNLVSGIPPRFSGSGSGTDFTLNIHPVEKVDAATYHCQQSTEDPWTFGGGTKLEIK |  | Kd (CD19 [2]): 1.85 nM
Humanised CD22ALAb scFv (scFv) scFv: EVQLVESGAEVKKPGSSVKVSCKASGYTFTNYWINWVRQAPGQGLEWIGNIYPSDSFTNYNQKFKDRATLTVDKSTSTAYLELRNLRSDDTAVYYCTRDTQERSWYFDVWGQGTLVTVSSDIVMTQSPATLSVSPGERATLSCRSSQSLVHSNGNTYLHWYQQKPGQAPRLLIYKVSNRFSGVPARFSGSGSGVEFTLTISSLQSEDFAVYYCSQSTHVPWTFGQGTRLEIK | 32 | 
